According to paper PMC5896933 (Molecular Biology of the Cell, 2018):

Biological target: T1, HA-tagged Ddi1^Δ202-299 (yeast, UniProt P40087 1-428, Δ202-299)
T1 sequence (looked up): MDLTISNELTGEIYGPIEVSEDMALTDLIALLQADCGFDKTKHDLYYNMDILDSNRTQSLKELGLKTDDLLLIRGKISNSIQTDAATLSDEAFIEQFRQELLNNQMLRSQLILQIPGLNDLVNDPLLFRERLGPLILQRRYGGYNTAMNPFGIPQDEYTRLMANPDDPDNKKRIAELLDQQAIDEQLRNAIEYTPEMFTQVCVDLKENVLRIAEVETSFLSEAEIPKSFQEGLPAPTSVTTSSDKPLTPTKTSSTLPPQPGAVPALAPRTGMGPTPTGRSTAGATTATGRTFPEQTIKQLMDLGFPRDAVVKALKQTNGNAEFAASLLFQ
Experiment: co-IP

B1: Cdc48-GFP (natural protein, yeast, UniProt P25694 1-835, looked up)
chain: MGEEHKPLLDASGVDPREEDKTATAILRRKKKDNMLLVDDAINDDNSVIAINSNTMDKLELFRGDTVLVKGKKRKDTVLIVLIDDELEDGACRINRVVRNNLRIRLGDLVTIHPCPDIKYATRISVLPIADTIEGITGNLFDVFLKPYFVEAYRPVRKGDHFVVRGGMRQVEFKVVDVEPEEYAVVAQDTIIHWEGEPINREDEENNMNEVGYDDIGGCRKQMAQIREMVELPLRHPQLFKAIGIKPPRGVLMYGPPGTGKTLMARAVANETGAFFFLINGPEVMSKMAGESESNLRKAFEEAEKNAPAIIFIDEIDSIAPKRDKTNGEVERRVVSQLLTLMDGMKARSNVVVIAATNRPNSIDPALRRFGRFDREVDIGIPDATGRLEVLRIHTKNMKLADDVDLEALAAETHGYVGADIASLCSEAAMQQIREKMDLIDLDEDEIDAEVLDSLGVTMDNFRFALGNSNPSALRETVVESVNVTWDDVGGLDEIKEELKETVEYPVLHPDQYTKFGLSPSKGVLFYGPPGTGKTLLAKAVATEVSANFISVKGPELLSMWYGESESNIRDIFDKARAAAPTVVFLDELDSIAKARGGSLGDAGGASDRVVNQLLTEMDGMNAKKNVFVIGATNRPDQIDPAILRPGRLDQLIYVPLPDENARLSILNAQLRKTPLEPGLELTAIAKATQGFSGADLLYIVQRAAKYAIKDSIEAHRQHEAEKEVKVEGEDVEMTDEGAKAEQEPEVDPVPYITKEHFAEAMKTAKRSVSDAELRRYEAYSQQMKASRGQFSNFNFNDAPLGTTATDNANSNNSAPSGAGAAFGSNAEEDDDLYS
- fold more Cdc48 bound, normalized for the amount of precipitated Ddi1^Δ202-299: 2.1 fold
